From US7252824B2, “Anti-neovasculature preparations for cancer” (Mannkind Corporation, priority 2001, dated 2007)

Tests used:
HLA-A2.1 = HLA-A2.1 (Homo sapiens, UniProt P04439, D140Y/D185E/D98H/E176V/E277Q/G131W/G231S/I119V/I121R/I166T/I218V/L300P/L318F/N151K/N90K/P208A/P217A/Q86G/Q94H/R138H/R169H/T345S); test: HLA-A*0201 binding assay (stabilization of surface HLA-A2.1 on T2 cells, flow cytometry); details: for binding to HLA-A2.1: T2 cells, peptide 6.25-800 μg/ml, compared with control peptides
HLA-A1+ CD8+ T cells = test: gamma-IFN-based ELISPOT assay; assay type: cell-based, human; details: IFN production blocked by anti-HLA-A1 monoclonal antibody
Procedure: The wells of a nitrocellulose-backed microtiter plate were coated with capture antibody by incubating overnight at 4° C. using 50 μl/well of 4 μg/ml murine anti-human −IFN monoclonal antibody in coating buffer (35 mM sodium bicarbonate, 15 mM sodium carbonate, pH 9.5). Unbound antibody was removed by washing 4 times 5 min. with PBS. Unbound sites on the membrane then were blocked by adding 200 μl/well of RPMI medium with 10% serum and incubating 1 hr. at room temperature. Antigen stimulated CD8^+ T cells, in 1:3 serial dilutions, were seeded into the wells of the microtiter plate using 100 μl/well, starting at 2×10^5 cells/well. […] Following this incubation the plates were washed with 6 times 200 μl/well of PBS containing 0.05% Tween-20 (PBS-Tween). Detection antibody, 50 μl/well of 2 μg/ml biotinylated murine anti-human −IFN monoclonal antibody in PBS+10% fetal calf serum, was added and the plate incubated at room temperature for 2 hrs. Unbound detection antibody was removed by washing with 4 times 200 μl of PBS-Tween. 100 μl of avidin-conjugated horseradish peroxidase (Pharmingen, San Diego, Calif.) was added to each well and incubated at room temperature for 1 hr. Unbound enzyme was removed by washing with 6 times 200 μl of PBS-Tween. […] The plate was air dried and the spots counted using a stereomicroscope.
No reactivity is detected from cultures without peptide (data not shown).

peptide pulsed T2 cells = test: Epitope specific lysis by CTL from peptide-immunized HHD-A2 mice; assay type: in vivo; details: HHD-A2 mice immunized with peptide in complete Freund's adjuvants, spleen cells re-stimulated in vitro; HLA-A2+ T2 targets
From the text: HHD-A2 mice were immunized with ED-B29-38 (SEQ ID NO. 103) in complete Freund's adjuvants and spleen cells were harvested and re-stimulated in vitro using standard methodology.

[1] = molecular target: T1, HLA-A2.1 (HLA-A*0201) on T2 cells (human); test: T2 cell HLA-A2.1 stabilisation, flow cytometry with FITC anti-HLA-A2
T1 construct: MHC class I molecule on T2 cells; also called HLA-A2+ T2 cells

## RMMNDQLMFL (Homo sapien) [SEQ ID NO 40]
HLA-A2.1
  binding to HLA-A2.1: significant binding at even lower concentrations than the positive control peptide
HLA-A2.1; not run in parallel
  binding activity / affinity by comparison to the controls: approaches the Melan A peptide in affinity

## RVDCTPLMY [SEQ ID NO 35]
HLA-A1+ CD8+ T cells
  HLA restriction of the response: HLA-A1-restricted response

## TIIGYRITVV (Homo sapien) [SEQ ID NO 103]
Peptide pulsed T2 cells
  epitope specific lysis by CTL: able to specifically lyse peptide pulsed T2 cells

## GMPEGDLVYV (Homo sapien) [SEQ ID NO 6]
HLA-A2.1
  binding to HLA-A2.1: significant binding at even lower concentrations than the positive control peptides

## MMNDQLMFL [SEQ ID NO 39]
HLA-A2.1
  binding to HLA-A2.1: significant binding at even lower concentrations than the positive control peptide

## TLRVDCTPL (Homo sapien) [SEQ ID NO 32]
HLA-A2.1
  binding to HLA-A2.1: binds nearly as well

## GLPSIPVHPI (Homo sapien) [SEQ ID NO 21]
HLA-A2.1
  binding to HLA-A2.1: significant binding at even lower concentrations than the positive control peptides

## MMNDQLMFL [PSMA663-671]
[1]
  binding result: binds
